Test results as given in US20180155406A1 (Sanofi, published 2018).
Numbered stars: 1 amine (or outer) side, 2 acyl side, 3 side chain; on linkers, the order of the positions; unused ones are H or OH. Square brackets hold non-standard residues; d marks the D form. Side chains are listed from the residue outwards. Ends that are not written are not given here. * marks the point of attachment. γGlu = O=C(O)[C@H](CCC(=O)[*:2])N[*:1]; Stearoyl = CCCCCCCCCCCCCCCCCC(=O)*; Palmitoyl = CCCCCCCCCCCCCCCC(=O)*; AEEA = NCCOCCOCC(=O)O; Aib = CC(C)(N)C(=O)O

T1: human GIP receptor (human, UniProt P48546 22-466)
T1 sequence (looked up): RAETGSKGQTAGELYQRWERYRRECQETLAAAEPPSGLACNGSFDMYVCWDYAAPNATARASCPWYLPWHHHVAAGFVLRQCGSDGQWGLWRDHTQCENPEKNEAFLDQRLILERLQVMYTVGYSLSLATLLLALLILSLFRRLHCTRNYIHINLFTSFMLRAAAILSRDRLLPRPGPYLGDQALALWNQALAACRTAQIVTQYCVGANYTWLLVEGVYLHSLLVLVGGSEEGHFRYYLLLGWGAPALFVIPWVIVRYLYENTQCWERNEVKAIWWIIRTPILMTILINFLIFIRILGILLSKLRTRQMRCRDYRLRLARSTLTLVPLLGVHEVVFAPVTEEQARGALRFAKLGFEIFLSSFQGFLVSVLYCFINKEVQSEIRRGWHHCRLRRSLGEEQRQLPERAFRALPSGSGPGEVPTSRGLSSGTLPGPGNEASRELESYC

B1: SEQ ID NO: 16 (peptide)
peptide: H[Aib]HGTFTSDLSKLK([γGlu-Palmitoyl])EEQRQ[Aib]EFIEWLKA[dA]GPPS[Aib]KPPPK-NH2
modifications: N-terminus assumed
SMILES: CCCCCCCCCCCCCCCC(=O)N[C@@H](CCC(=O)NCCCC[C@H](NC(=O)[C@H](CC(C)C)NC(=O)[C@H](CCCCN)NC(=O)[C@H](CO)NC(=O)[C@H](CC(C)C)NC(=O)[C@H](CC(=O)O)NC(=O)[C@H](CO)NC(=O)[C@@H](NC(=O)[C@H](Cc1ccccc1)NC(=O)[C@@H](NC(=O)CNC(=O)[C@H](Cc1c[nH]cn1)NC(=O)C(C)(C)NC(=O)[C@@H](N)Cc1c[nH]cn1)[C@@H](C)O)[C@@H](C)O)C(=O)N[C@@H](CCC(=O)O)C(=O)N[C@@H](CCC(=O)O)C(=O)N[C@@H](CCC(N)=O)C(=O)N[C@@H](CCCNC(=N)N)C(=O)N[C@@H](CCC(N)=O)C(=O)NC(C)(C)C(=O)N[C@@H](CCC(=O)O)C(=O)N[C@@H](Cc1ccccc1)C(=O)N[C@H](C(=O)N[C@@H](CCC(=O)O)C(=O)N[C@@H](Cc1c[nH]c2ccccc12)C(=O)N[C@@H](CC(C)C)C(=O)N[C@@H](CCCCN)C(=O)N[C@@H](C)C(=O)N[C@H](C)C(=O)NCC(=O)N1CCC[C@H]1C(=O)N1CCC[C@H]1C(=O)N[C@@H](CO)C(=O)NC(C)(C)C(=O)N[C@@H](CCCCN)C(=O)N1CCC[C@H]1C(=O)N1CCC[C@H]1C(=O)N1CCC[C@H]1C(=O)N[C@@H](CCCCN)C(N)=O)[C@@H](C)CC)C(=O)O
B2: SEQ ID NO: 14 (peptide)
peptide: H[Aib]HGTFTSDLSKLK([γGlu-γGlu-AEEA-Palmitoyl])EEQRQKEFIEWLKAGGHPS[Aib]KPPPK-NH2
modifications: N-terminus assumed
SMILES: CCCCCCCCCCCCCCCC(=O)NCCOCCOCC(=O)N[C@@H](CCC(=O)N[C@@H](CCC(=O)NCCCC[C@H](NC(=O)[C@H](CC(C)C)NC(=O)[C@H](CCCCN)NC(=O)[C@H](CO)NC(=O)[C@H](CC(C)C)NC(=O)[C@H](CC(=O)O)NC(=O)[C@H](CO)NC(=O)[C@@H](NC(=O)[C@H](Cc1ccccc1)NC(=O)[C@@H](NC(=O)CNC(=O)[C@H](Cc1c[nH]cn1)NC(=O)C(C)(C)NC(=O)[C@@H](N)Cc1c[nH]cn1)[C@@H](C)O)[C@@H](C)O)C(=O)N[C@@H](CCC(=O)O)C(=O)N[C@@H](CCC(=O)O)C(=O)N[C@@H](CCC(N)=O)C(=O)N[C@@H](CCCNC(=N)N)C(=O)N[C@@H](CCC(N)=O)C(=O)N[C@@H](CCCCN)C(=O)N[C@@H](CCC(=O)O)C(=O)N[C@@H](Cc1ccccc1)C(=O)N[C@H](C(=O)N[C@@H](CCC(=O)O)C(=O)N[C@@H](Cc1c[nH]c2ccccc12)C(=O)N[C@@H](CC(C)C)C(=O)N[C@@H](CCCCN)C(=O)N[C@@H](C)C(=O)NCC(=O)NCC(=O)N[C@@H](Cc1c[nH]cn1)C(=O)N1CCC[C@H]1C(=O)N[C@@H](CO)C(=O)NC(C)(C)C(=O)N[C@@H](CCCCN)C(=O)N1CCC[C@H]1C(=O)N1CCC[C@H]1C(=O)N1CCC[C@H]1C(=O)N[C@@H](CCCCN)C(N)=O)[C@@H](C)CC)C(=O)O)C(=O)O
B3: SEQ ID NO: 17 (peptide)
peptide: H[Aib]HGTFTSDLSKLK([γGlu-Stearoyl])EEQRQ[Aib]EFIEWLKA[dA]GPPS[Aib]KPPPK-NH2
modifications: N-terminus assumed
SMILES: CCCCCCCCCCCCCCCCCC(=O)N[C@@H](CCC(=O)NCCCC[C@H](NC(=O)[C@H](CC(C)C)NC(=O)[C@H](CCCCN)NC(=O)[C@H](CO)NC(=O)[C@H](CC(C)C)NC(=O)[C@H](CC(=O)O)NC(=O)[C@H](CO)NC(=O)[C@@H](NC(=O)[C@H](Cc1ccccc1)NC(=O)[C@@H](NC(=O)CNC(=O)[C@H](Cc1c[nH]cn1)NC(=O)C(C)(C)NC(=O)[C@@H](N)Cc1c[nH]cn1)[C@@H](C)O)[C@@H](C)O)C(=O)N[C@@H](CCC(=O)O)C(=O)N[C@@H](CCC(=O)O)C(=O)N[C@@H](CCC(N)=O)C(=O)N[C@@H](CCCNC(=N)N)C(=O)N[C@@H](CCC(N)=O)C(=O)NC(C)(C)C(=O)N[C@@H](CCC(=O)O)C(=O)N[C@@H](Cc1ccccc1)C(=O)N[C@H](C(=O)N[C@@H](CCC(=O)O)C(=O)N[C@@H](Cc1c[nH]c2ccccc12)C(=O)N[C@@H](CC(C)C)C(=O)N[C@@H](CCCCN)C(=O)N[C@@H](C)C(=O)N[C@H](C)C(=O)NCC(=O)N1CCC[C@H]1C(=O)N1CCC[C@H]1C(=O)N[C@@H](CO)C(=O)NC(C)(C)C(=O)N[C@@H](CCCCN)C(=O)N1CCC[C@H]1C(=O)N1CCC[C@H]1C(=O)N1CCC[C@H]1C(=O)N[C@@H](CCCCN)C(N)=O)[C@@H](C)CC)C(=O)O
B4: SEQ ID NO: 19 (peptide)
peptide: H[Aib]HGTFTSDLSKLK([γGlu-Stearoyl])EEQRQ[Aib]EFIEWLKAGGPPS[Aib]KPPPK-NH2
modifications: N-terminus assumed
SMILES: CCCCCCCCCCCCCCCCCC(=O)N[C@@H](CCC(=O)NCCCC[C@H](NC(=O)[C@H](CC(C)C)NC(=O)[C@H](CCCCN)NC(=O)[C@H](CO)NC(=O)[C@H](CC(C)C)NC(=O)[C@H](CC(=O)O)NC(=O)[C@H](CO)NC(=O)[C@@H](NC(=O)[C@H](Cc1ccccc1)NC(=O)[C@@H](NC(=O)CNC(=O)[C@H](Cc1c[nH]cn1)NC(=O)C(C)(C)NC(=O)[C@@H](N)Cc1c[nH]cn1)[C@@H](C)O)[C@@H](C)O)C(=O)N[C@@H](CCC(=O)O)C(=O)N[C@@H](CCC(=O)O)C(=O)N[C@@H](CCC(N)=O)C(=O)N[C@@H](CCCNC(=N)N)C(=O)N[C@@H](CCC(N)=O)C(=O)NC(C)(C)C(=O)N[C@@H](CCC(=O)O)C(=O)N[C@@H](Cc1ccccc1)C(=O)N[C@H](C(=O)N[C@@H](CCC(=O)O)C(=O)N[C@@H](Cc1c[nH]c2ccccc12)C(=O)N[C@@H](CC(C)C)C(=O)N[C@@H](CCCCN)C(=O)N[C@@H](C)C(=O)NCC(=O)NCC(=O)N1CCC[C@H]1C(=O)N1CCC[C@H]1C(=O)N[C@@H](CO)C(=O)NC(C)(C)C(=O)N[C@@H](CCCCN)C(=O)N1CCC[C@H]1C(=O)N1CCC[C@H]1C(=O)N1CCC[C@H]1C(=O)N[C@@H](CCCCN)C(N)=O)[C@@H](C)CC)C(=O)O
B5: SEQ ID NO: 18 (peptide)
peptide: H[Aib]HGTFTSDLSKLK([γGlu-Palmitoyl])EEQRQ[Aib]EFIEWLKAGGPPS[Aib]KPPPK-NH2
modifications: N-terminus assumed
SMILES: CCCCCCCCCCCCCCCC(=O)N[C@@H](CCC(=O)NCCCC[C@H](NC(=O)[C@H](CC(C)C)NC(=O)[C@H](CCCCN)NC(=O)[C@H](CO)NC(=O)[C@H](CC(C)C)NC(=O)[C@H](CC(=O)O)NC(=O)[C@H](CO)NC(=O)[C@@H](NC(=O)[C@H](Cc1ccccc1)NC(=O)[C@@H](NC(=O)CNC(=O)[C@H](Cc1c[nH]cn1)NC(=O)C(C)(C)NC(=O)[C@@H](N)Cc1c[nH]cn1)[C@@H](C)O)[C@@H](C)O)C(=O)N[C@@H](CCC(=O)O)C(=O)N[C@@H](CCC(=O)O)C(=O)N[C@@H](CCC(N)=O)C(=O)N[C@@H](CCCNC(=N)N)C(=O)N[C@@H](CCC(N)=O)C(=O)NC(C)(C)C(=O)N[C@@H](CCC(=O)O)C(=O)N[C@@H](Cc1ccccc1)C(=O)N[C@H](C(=O)N[C@@H](CCC(=O)O)C(=O)N[C@@H](Cc1c[nH]c2ccccc12)C(=O)N[C@@H](CC(C)C)C(=O)N[C@@H](CCCCN)C(=O)N[C@@H](C)C(=O)NCC(=O)NCC(=O)N1CCC[C@H]1C(=O)N1CCC[C@H]1C(=O)N[C@@H](CO)C(=O)NC(C)(C)C(=O)N[C@@H](CCCCN)C(=O)N1CCC[C@H]1C(=O)N1CCC[C@H]1C(=O)N1CCC[C@H]1C(=O)N[C@@H](CCCCN)C(N)=O)[C@@H](C)CC)C(=O)O
B6: SEQ ID NO: 15 (peptide)
peptide: H[Aib]HGTFTSDLSKLK([γGlu-γGlu-AEEA-Palmitoyl])EEQRQKEFIEWLKA[dA]GHPS[Aib]KPPPK-NH2
modifications: N-terminus assumed
SMILES: CCCCCCCCCCCCCCCC(=O)NCCOCCOCC(=O)N[C@@H](CCC(=O)N[C@@H](CCC(=O)NCCCC[C@H](NC(=O)[C@H](CC(C)C)NC(=O)[C@H](CCCCN)NC(=O)[C@H](CO)NC(=O)[C@H](CC(C)C)NC(=O)[C@H](CC(=O)O)NC(=O)[C@H](CO)NC(=O)[C@@H](NC(=O)[C@H](Cc1ccccc1)NC(=O)[C@@H](NC(=O)CNC(=O)[C@H](Cc1c[nH]cn1)NC(=O)C(C)(C)NC(=O)[C@@H](N)Cc1c[nH]cn1)[C@@H](C)O)[C@@H](C)O)C(=O)N[C@@H](CCC(=O)O)C(=O)N[C@@H](CCC(=O)O)C(=O)N[C@@H](CCC(N)=O)C(=O)N[C@@H](CCCNC(=N)N)C(=O)N[C@@H](CCC(N)=O)C(=O)N[C@@H](CCCCN)C(=O)N[C@@H](CCC(=O)O)C(=O)N[C@@H](Cc1ccccc1)C(=O)N[C@H](C(=O)N[C@@H](CCC(=O)O)C(=O)N[C@@H](Cc1c[nH]c2ccccc12)C(=O)N[C@@H](CC(C)C)C(=O)N[C@@H](CCCCN)C(=O)N[C@@H](C)C(=O)N[C@H](C)C(=O)NCC(=O)N[C@@H](Cc1c[nH]cn1)C(=O)N1CCC[C@H]1C(=O)N[C@@H](CO)C(=O)NC(C)(C)C(=O)N[C@@H](CCCCN)C(=O)N1CCC[C@H]1C(=O)N1CCC[C@H]1C(=O)N1CCC[C@H]1C(=O)N[C@@H](CCCCN)C(N)=O)[C@@H](C)CC)C(=O)O)C(=O)O

Legend:
Test in all cases: cell-based or functional assay
[1] = molecular target: T1, human GIP receptor
[2] = molecular target: human GLP-1 receptor (human, UniProt P43220 24-463)
[3] = molecular target: human glucagon receptor (human, UniProt P47871 26-477)
Sequence of human glucagon receptor (P47871 26-477): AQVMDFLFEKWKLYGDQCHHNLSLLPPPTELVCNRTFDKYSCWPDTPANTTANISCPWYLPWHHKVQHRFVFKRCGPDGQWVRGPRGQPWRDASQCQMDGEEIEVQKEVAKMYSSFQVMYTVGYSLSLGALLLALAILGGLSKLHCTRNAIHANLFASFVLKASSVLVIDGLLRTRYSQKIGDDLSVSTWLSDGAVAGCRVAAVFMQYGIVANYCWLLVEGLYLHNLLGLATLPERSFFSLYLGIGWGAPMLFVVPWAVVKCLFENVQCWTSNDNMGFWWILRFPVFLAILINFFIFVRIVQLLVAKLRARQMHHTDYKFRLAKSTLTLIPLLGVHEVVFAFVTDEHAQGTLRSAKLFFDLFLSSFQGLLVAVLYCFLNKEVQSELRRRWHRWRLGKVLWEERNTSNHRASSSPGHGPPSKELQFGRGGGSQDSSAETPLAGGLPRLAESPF

Row | Binder | EC50 hGIP R (cAMP formation) [1] | EC50 hGLP-1R (cAMP formation) [2] | EC50 hGlucagon R (cAMP formation) [3]
1 | B1 | 3.7 pM | 7.1 pM | 4.3 pM
2 | B2 | 1.2 pM | 0.9 pM | 3.4 pM
3 | B3 | 7.3 pM | 6.4 pM | 5.3 pM
4 | B4 | 4 pM | 6.1 pM | 3.1 pM
5 | B5 | 2 pM | 5.3 pM | 2.8 pM
6 | B6 | 1.8 pM | 1.1 pM | 4.5 pM
